Eight molecules from patent US20150306181A1 (BOARD OF REGENTS OF THE UNIVERSITY OF NEBRASKA, published 2015) can be followed below.

As usually defined, the koff is a measure of how fast the partners let go of each other. Usually kon stands for the second-order rate constant of association. Usually Kd stands for the equilibrium constant for the complex coming apart.

In assay [1] the target is T1, mouse leptin receptor-Fc chimera (mouse; human, UniProt P48356 22-839).
T1 construct: extracellular domain; Bought from R&D Systems; Captured on a protein G sensor chip through its Fc; also called ObR-Fc; chimera leptin receptor; not shown: human Fc fragment, printed as 'human protein G Fc fragment'
T1 sequence (looked up): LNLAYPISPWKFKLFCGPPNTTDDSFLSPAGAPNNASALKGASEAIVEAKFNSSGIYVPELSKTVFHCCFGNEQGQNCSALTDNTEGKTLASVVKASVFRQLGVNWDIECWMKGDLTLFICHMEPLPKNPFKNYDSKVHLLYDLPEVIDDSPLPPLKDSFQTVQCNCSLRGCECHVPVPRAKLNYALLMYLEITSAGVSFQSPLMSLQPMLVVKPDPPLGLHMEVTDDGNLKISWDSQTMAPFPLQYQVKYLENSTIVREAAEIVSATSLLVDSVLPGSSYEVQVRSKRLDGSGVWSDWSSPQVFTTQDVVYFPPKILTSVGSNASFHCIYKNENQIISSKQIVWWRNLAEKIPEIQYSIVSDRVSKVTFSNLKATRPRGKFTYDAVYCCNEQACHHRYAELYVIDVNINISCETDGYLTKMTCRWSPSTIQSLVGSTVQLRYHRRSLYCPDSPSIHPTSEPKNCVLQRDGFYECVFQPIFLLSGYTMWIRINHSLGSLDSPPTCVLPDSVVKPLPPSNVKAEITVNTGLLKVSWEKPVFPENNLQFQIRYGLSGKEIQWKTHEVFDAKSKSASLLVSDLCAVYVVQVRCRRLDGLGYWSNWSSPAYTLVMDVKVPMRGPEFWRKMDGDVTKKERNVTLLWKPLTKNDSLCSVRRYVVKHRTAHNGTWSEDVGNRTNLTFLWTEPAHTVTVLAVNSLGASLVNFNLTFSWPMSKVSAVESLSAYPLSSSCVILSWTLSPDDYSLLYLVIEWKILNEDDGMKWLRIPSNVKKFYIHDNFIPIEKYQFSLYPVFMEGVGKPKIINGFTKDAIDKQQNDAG
The assay can be described thus: SPR (Biacore 3000), ObR-Fc captured on protein G chip, 1:1 model. The procedure:
The binding affinity of leptin and its analogs was measured by surface plasma resonance (SPR) in Biacore® 3000 instrument (GE Healthcare, Piscataway, N.J.), using a method reported for leptin (Mistrik et al. (2004) Anal. Biochem., 327:271-7). Carboxymethyl dextran chip (CMS), N-hydroxysuccinimide (NHS), 1-ethyl-3-(3-dimethylaminopropyl) carbodiimide (EDC), ethanolamine-HCl, HBS-EP buffer (10 mM HEPES, 150 mM NaCl, 3 mM EDTA, 0.005% surfactant P20, pH 7.4) and protein G were all purchased from GE Healthcare. To prepare the sensor chip, protein G was immobilized on CMS (Channel A and B) by consequent injection of 1) 115 μL NHS/EDC (1:1, v/v) (to activate dextran surface); 2) 60 μL protein G (200 μg/mL, 10 mM sodium acetate buffer, pH 4.0) (to bound the surface at 2000-3000 resonance units (RU)), and 3) 75 μl of 1 M ethanolamine hydrochloride, pH 8.5 (to deactivate NHS-ester and remove electrostatically bound protein). CMS surface response was recorded by first, immobilization of ObR-Fc (0.5 μg/mL, 15 μL in HBS-EP, 5 μL/min flow rate) in channel A following 1800 s washing (to capture 100-300 RU of ObR-Fc); second, capture of leptin or leptin-Pluronic® conjugates (0-300 nM, 100 μL in HBS-EP, flow rate 20 μL/min) and dissociation (900 s) in channel A (ObR-Fc surface) and B (protein G surface); third, regeneration of a fully active protein G surface by 5 μL glycine (10 mM, pH 2.0). The data (sensorgrams in channel A) were corrected by non-specific protein G surface binding (sensorgrams in channel B) and baseline draft (sensorgrams of HBS-EP injection in channel A) which might occur due to a slow dissociation of between ObR-Fc and protein G and then fitted to a 1:1 binding model using BIA evaluation software.
TABLE 3 Kinetic constants for leptin and leptin-P85 conjugates and leptin receptor interaction. The association and dissociation rate constants kₐ and kd were determined as global fitting parameters for a 1:1 binding model. The kinetics of the interaction with leptin, the mixture of leptin and P85, Lep-(ss)-P85(1) and its reduced form, Lep-(ss)-P85(2.1) and its reduced form, Lep-(nc)-P85(2) and purified Lep-(ss)-P85(2.3) from HIC, 33 min were analyzed. The equilibrium dissociation constant KD was determined as kd/kₐ. Numbers represent averaged values from three independent measurements on the same ObR-Fc surface.

In assay [2] the target is T1, mouse leptin receptor-Fc chimera. The assay can be described thus: SPR, ObR-Fc captured on protein G CM5 chip, 1:1 model (Example 3). As to the method: […] Binding affinity of leptin or leptin-POx with leptin receptor was determined by surface plasma resonance (SPR). Protein G was immobilized on CM5 sensor chip using following procedure: 1) inject 115 μL NHS/EDC mixed solution (1:1, v/v) to activate dextran surface; 2) inject 60 μL protein G (200 μg/mL in 10 mM sodium acetate buffer, pH 4.0) to bind with the activated sensor surface; 3) inject 75 μL of 1 M ethanolamine hydrochloride, pH 8.5 to deactivate NHS-ester and remove non-specifically bound protein. […] The sensorgram in channel A was corrected by non-specific surface binding (sensorgram in channel B) and baseline draft (sensorgram of HBS-EP buffer injection in channel A) and then fitted with a 1:1 binding model as provided by BIA evaluation software. The rate constant kₐ and kd, and equilibrium association constant (KA) and dissociation constant (KD) are determined.
In general terms: SPR reads the build-up and loss of mass on a sensor chip optically.

The target is the same in assay [3]. Description: SPR (Biacore 3000), ObR-Fc captured on protein G chip, 1:1 model, KD = kd/ka. As to the method:
(§1) The binding affinity of leptin and its analogs was measured by surface plasma resonance (SPR) in Biacore® 3000 instrument (GE Healthcare, Piscataway, N.J.), using a method reported for leptin (Mistrik et al. (2004) Anal. Biochem., 327:271-7). Carboxymethyl dextran chip (CMS), N-hydroxysuccinimide (NHS), 1-ethyl-3-(3-dimethylaminopropyl) carbodiimide (EDC), ethanolamine-HCl, HBS-EP buffer (10 mM HEPES, 150 mM NaCl, 3 mM EDTA, 0.005% surfactant P20, pH 7.4) and protein G were all purchased from GE Healthcare. […] CMS surface response was recorded by first, immobilization of ObR-Fc (0.5 μg/mL, 15 μL in HBS-EP, 5 μL/min flow rate) in channel A following 1800 s washing (to capture 100-300 RU of ObR-Fc); second, capture of leptin or leptin-Pluronic® conjugates (0-300 nM, 100 μL in HBS-EP, flow rate 20 μL/min) and dissociation (900 s) in channel A (ObR-Fc surface) and B (protein G surface); third, regeneration of a fully active protein G surface by 5 μL glycine (10 mM, pH 2.0). […]
(§2) TABLE 3 Kinetic constants for leptin and leptin-P85 conjugates and leptin receptor interaction. The association and dissociation rate constants kₐ and kd were determined as global fitting parameters for a 1:1 binding model. […] The equilibrium dissociation constant KD was determined as kd/kₐ. […]

For assay [4] the target is unchanged. The assay can be described thus: SPR, ObR-Fc captured on protein G chip; leptin in 1:1 mixture with free Pluronic P85. The source says: Next, the binding of the leptin-Pluronic® conjugates with the chimera leptin receptor (ObR-Fc) was studied. ObR-Fc contains the human […] Fc fragment and the mouse ObR N-terminus that shares the same sequence as the extracellular domains of the putative leptin transporter at the BBB (ObRa) and the leptin receptor (ObRb) expressed in the brain. The Fc fragment of ObR-Fc was used to reversibly bind to protein G that was pre-immobilized onto the sensor chip. The ObR N-terminus of ObR-Fc adsorbed onto the sensor chip was used for sample detection. The SPR association and dissociation profiles were recorded for native leptin, a mixture of leptin and P85, Lep-(ss)-P85(1), Lep-(ss)-P85(2.1), Lep-(ss)-P85(2.3) (fractions purified by HIC and collected at 33 min) and Lep-(nc)-P85(2) (FIG. 8 and Table 3). […] The KD values for the N-terminal modified Lep-(nc)-P85(2), which also had low modification degree, were similar to those observed for Lep-(ss)-P85(2.1) without HIC purification.

The target is the same in assay [5]. The assay can be described thus: SPR, ObR-Fc captured on protein G chip, 1:1 model; leptin in 1:1 mixture with free Pluronic P85. The procedure:
as §1, §2

The target is the same in assay [6]. The assay can be described thus: SPR, ObR-Fc captured on protein G chip, 1:1 model; leptin in 1:1 mixture with free Pluronic P85; leptin mixed with free P85. The procedure: as §1, §2

B1: Mouse leptin (ligand, UniProt P41160 22-167, looked up)
chain: VPIQKVQDDTKTLIKTIVTRINDISHTQSVSAKQRVTGLDFIPGLHPILSLSKMDQTLAVYQQVLTSLPSQNVLQIANDLENLRDLLHLLAFSKSCSLPQTSGLQKPESLDGVLEASLYSTEVVALSRLQGSLQDILQQLDVSPEC
notes: Also tested as a non-covalent 1:1 mixture with free Pluronic P85 ('Leptin + P85'); Those rows use this molecule and name the mixture under assay; The preparation held monomer and dimer on SDS-PAGE; also called native leptin; mu-leptin
For the molecule B1, the koff in assay [1] came out at 0.000208 s⁻¹; in assay [2] it was 0.00051 s⁻¹; in assay [5], 0.000368 s⁻¹. Also, the kon in assay [1] came to 2.09e+06 M⁻¹ s⁻¹; in assay [2] it was 530000 M⁻¹ s⁻¹; in assay [5], 1.09e+06 M⁻¹ s⁻¹. Besides, the Ka in assay [2] is 1.1e+09 M⁻¹. For the same molecule, the results for the Kd in assay [2], in assay [3] and in assay [6] were 0.96 nM, 0.1 nM and 0.337 nM, respectively. For the same molecule, in assay [4], the “fold decrease of binding affinity against native leptin alone” value is around 3 fold.

B2: Lep-(ss)-P85(2.1) reduced (ligand, mouse, UniProt P41160 22-167, looked up)
chain: B1 chain
modifications: Pluronic P85 chains on lysine amino groups through the DSP linker, partly cleaved by 6 mM L-glutathione
notes: Lep-(ss)-P85(2.1) dialysed against 6 mM L-glutathione in PBS with 20% ethanol; also called reduced form of Lep-(ss)-P85(2.1)
In assay [1], B2 yielded a Kd of 2.09 nM, a koff of 0.000407 s⁻¹ and a kon of 195000 M⁻¹ s⁻¹.

B3: Leptin-POx conjugate (ligand, UniProt P41160 22-167, looked up)
chain: B1 chain
modifications: P(MeOx50-b-BuOx20) poly(2-oxazoline) chains on amino groups through the DSP linker; modification degree 6.0 per leptin monomer by TNBS assay
notes: SEC-purified mixture of forms with different numbers of POx chains, with some unmodified monomer and dimer; also called leptin-P(MeOx-b-BuOx); leptipox
In assay [2], B3 had a Ka of 1.8e+07 M⁻¹, a Kd of 56 nM, an off-rate constant (koff) of 0.00073 s⁻¹ and a kon of 13000 M⁻¹ s⁻¹.

B4: Lep-(ss)-P85(2.1) (ligand, mouse, UniProt P41160 22-167, looked up)
chain: B1 chain
modifications: Pluronic P85 chains on lysine amino groups through the DSP (disulfide) linker; lower degree of modification; positions not determined
notes: Mixture that includes unmodified leptin
In assay [1], B4 displayed a Kd of 3.2 nM, a koff of 0.000355 s⁻¹ and an on-rate (kon) of 113000 M⁻¹ s⁻¹.

B5: Lep-(ss)-P85(2.3), 33 min (ligand, mouse, UniProt P41160 22-167, looked up)
chain: B1 chain
modifications: one Pluronic P85 chain on a lysine amino group through the DSP (disulfide) linker; position not determined
notes: HIC fraction collected at 33 min, said to contain leptin modified with one P85 chain; also called Lep-(ss)-P85(2.3) purified by HIC (33 minutes); HIC-purified Lep-(ss)-P85(2.3)
For the molecule B5, in assay [1], the equilibrium dissociation constant (Kd) is 1.21 nM, the koff is 0.000292 s⁻¹ and the kon was determined as 311000 M⁻¹ s⁻¹.

B6: Lep-(nc)-P85(2) (ligand, mouse, UniProt P41160 22-167, looked up)
chain: B1 chain
modifications: one Pluronic P85 chain on the N-terminal alpha amino group by reductive amination with mono-aldehyde-P85
notes: the rest is unmodified leptin; also called N-terminal modified Lep-(nc)-P85(2)
Regarding B6, in assay [1], binding was put at a Kd of 3.8 nM, the koff amounted to 0.000247 s⁻¹ and the kon came out at 77000 M⁻¹ s⁻¹.

B7: Lep-(ss)-P85(1) (ligand, mouse, UniProt P41160 22-167, looked up)
chain: B1 chain
modifications: Pluronic P85 chains on lysine amino groups through the DSP (disulfide) linker; highly modified; positions not determined
notes: Mixture of unmodified leptin and leptin with 1 to several P85 chains
As for B7, in assay [1], binding was put at a Kd of 57.1 nM, the koff is 0.000642 s⁻¹ and the kon came out at 12000 M⁻¹ s⁻¹.

B8: Lep-(ss)-P85(1) reduced (ligand, mouse, UniProt P41160 22-167, looked up)
chain: B1 chain
modifications: Pluronic P85 chains on lysine amino groups through the DSP linker, partly cleaved by 6 mM L-glutathione; a linker remainder is left on cleaved sites
notes: Lep-(ss)-P85(1) dialysed against 6 mM L-glutathione in PBS with 20% ethanol; Some but not all P85 chains were cleaved; also called reduced form of Lep-(ss)-P85(1)
As to B8, in assay [1], the Kd is 16.4 nM, the koff was determined as 0.00079 s⁻¹ and the kon is 49000 M⁻¹ s⁻¹.
